Results: patent US20250057951A1, “DISCERNIBLE CELL SURFACE PROTEIN VARIANTS OF CD117 FOR USE IN CELL THERAPY” (UNIVERSITÄT BASEL, priority 2021, published 2025)
Substitutions are numbered along the chain they refer to. Names may count otherwise. Blank lines part the entries; values can stand above or below the molecule they belong to.

Tests used:
antibody Refmab #1 [1] = test: Octet screen: binding of CD117 D1-2-3 variants to captured Refmab #1; settings: nm shift at end of association, top analyte concentration (500 nM)
Sequence of antibody Refmab #1 (as listed by the source): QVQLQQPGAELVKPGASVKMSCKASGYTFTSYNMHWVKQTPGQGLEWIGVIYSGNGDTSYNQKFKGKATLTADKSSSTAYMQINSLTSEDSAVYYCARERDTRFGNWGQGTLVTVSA
Sequence of antibody Refmab #1 (as listed by the source): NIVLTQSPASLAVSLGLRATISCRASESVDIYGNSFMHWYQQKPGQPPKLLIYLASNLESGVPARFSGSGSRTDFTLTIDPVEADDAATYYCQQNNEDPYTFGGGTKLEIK
Description: A more sophisticated analysis of binding to the elected variants was performed with antibody Refmab #1. Binding of Refmab #1 to wt and variants (analyte) was measured in an Octet system RED96e or R8 at 25° C. with shaking at 1,000 rpm using 1× kinetic buffer (Sartorius, PN: 18-1105). First, the elected variants were screened for their ability to bind Refmab #1 using three different concentrations of analytes. Antibody Refmab #1 was captured by Anti-Human Fc capture biosensor (AHC) (Sartorius, PN: 18-5060) for 300 s at 0.5 to 1 μg/mL. As an analyte, human CD117 wt and variants, containing only domains 1, 2 and 3 (CD117 D1-2-3), was titrated at 500 nM, 50 nM and 5 nM. Association and dissociation of the analyte to Refmab #1 was monitored for 300 s and 900 s, respectively. Reference subtraction was performed against buffer only wells. AHC tips were regenerated using 10 mM Gly-HCl pH 1.7. Data were analyzed using the Octet Data Analysis software HT 12.0. Data were fitted (when possible) to a 1:1 binding model. Kinetic rates ka and […] globally fitted. Binding level of the elected variants were compared to wild type and are shown as percent in FIG. 7. For this qualitative analysis, the binding level of the top analyte concentration at end of the association step was used.

CD117 = test: Gene editing of CD117 in TF-1 cells, loss of SR-1 binding by FACS; type: cell-based, human; settings: FACS 7 days after electroporation with Cas9, crRNA/tracrRNA or sgRNA and HDR template
Description: Gene editing of CD117 was performed in TF-1 cells using HDR. 12 different crRNAs were tested, six of them targeting amino acid residue E73 (Table 3), and six of them targeting amino acid residues 120-123 (Table 3).
Binding of antibody SR-1 to TF-1 cells was measured by FACS 7 days after electroporation with Cas9 protein, crRNA/tracrRNA or sgRNA and HDR template (Table 4).

antibody Refmab #1 [2] = test: Octet titration, steady state KD of CD117 D1-2-3 variants to Refmab #1; type: binding; settings: for Kd: 7 concentrations 2000-5 nM, steady state, two individual experiments; for change of KD compared to wild type CD117: KD variant vs wild type; for binding of Refmab #1 at 2000 nM variant: nm shift higher than 0.1 nm counts as binding
Description: To further characterize binding of Refmab #1 to CD117 D1-2-3 variants E73K, E73L, E73R, E73Y, D121H, D121K, S123K and S123F, the analytes were titrated at 7 different concentrations (from 2000 nM to 5 nM). Antibody Refmab #1 was captured by AHC biosensors for 300 s at 0.5 to 1 μg/mL. Association and dissociation to Refmab #1 was extended to 600 s and 1000 s, respectively. Steady state analysis was performed.

TF-1 cells = test: SCF-dependent proliferation, SCF titration on TF-1 cells with CD117 variants (CellTiter-Glo); type: cell-based, human
Description: In another experiment, SCF-dependent proliferation of variants E73K, E73Y, D121K, S123F and S123K was compared against wildtype CD117. TF-1 cells were seeded at a cell concentration of 150 000 cells/ml in sterile, white cell culture treated plates with transparent bottom in RPMI+GlutaMax+10% FCS. Cells were treated with a titration of SCF. After 3 days of incubation a CellTiter-Glo 2.0 assay (Promega) was performed, luminescence was read in a luminometer (Envision plate reader) and EC50's was determined. Two different experiments with triplicates in each experiment were performed.

Biotinylated Avitag-hSCF = molecular target: T1, Biotinylated Avitag-hSCF (human, UniProt P21583 26-190, limits assumed, biotinylated Avitag); test: BLI (Octet), steady state: biotinylated SCF on streptavidin biosensor, CD117 D1-2-3 variant as analyte; KD relative to WT
T1 construct: Bought reagent; also called hSCF (Acros Biosystems SCF-H82E1)
T1 sequence (P21583 26-190 limits assumed): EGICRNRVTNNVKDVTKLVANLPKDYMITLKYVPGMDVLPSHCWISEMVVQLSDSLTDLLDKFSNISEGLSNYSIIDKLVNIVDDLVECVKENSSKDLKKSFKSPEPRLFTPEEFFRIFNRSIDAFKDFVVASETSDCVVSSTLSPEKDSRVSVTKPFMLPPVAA
Description: Domains 4 and 5 were used as a negative, non-binding control.
Association was monitored for 300 s and dissociation for 600 s. […] Reference subtraction was performed against buffer only wells. Biosensors were not regenerated and a new set of SA biosensors was used for each analyte. Data were analyzed using the Octet Data Analysis software HT 12.0. Steady state data analysis was performed due to the fast on/off nature of the interaction.

[3] = titration of SCF, 3 days, TF-1 cells with the CD117 variant

Molecule: S1231: variant of human CD117, printed S1231, probably substitution S123I
binding to Refmab #1 compared to wild type (antibody Refmab #1 [1]): strong decrease in binding

Molecule: KIT_E73_3: crRNA CAAATGGACTTTTGAGATCC, SEQ ID NO: 5, targets E73 of CD117 (chemistry not given here)
KnockOut Efficiency (loss of binding of SR-1 compared to wild type cells) (CD117): 37.2%

Molecule: KIT_120_123_4: crRNA CTTGTTGACCGCTCCTTGTA, SEQ ID NO: 12, targets residues 120-123 of CD117 (chemistry not given here)
KnockOut Efficiency (loss of binding of SR-1 compared to wild type cells) (CD117): 60.0%

Molecule: KIT_120_123_6: crRNA GCGGTCAACAAGGAAAAGCT, SEQ ID NO: 14, targets residues 120-123 of CD117 (chemistry not given here)
KnockOut Efficiency (loss of binding of SR-1 compared to wild type cells) (CD117): 60.6%

B3: D121T: variant of human CD117 with substitution D121T (protein)
chain: QPSVSPGEPSPPSIHPGKSDLIVRVGDEIRLLCTDPGFVKWTFEILDETNENKQNEWITEKAEATNTGKYTCTNKHGLSNSIYVFVRDPAKLFLVTRSLYGKEDNDTLVRCPLTDPEVTNYSLKGCQGKPLPKDLRFIPDPKAGIMIKSVKRAYHRLCLHCSVDQEGKSVLSEKFILKVRPAFKAVPVVSVSKASYLLREGEEFTVTCTIKDVSSSVYSTWKRENSQTKLQEKYNSWHHGDFNYERQATLTISSARVNDSGVFMCYANNTFGSANVTTTLEVVDKG
binding to Refmab #1 compared to wild type (antibody Refmab #1 [1]): particular strong decrease in binding

B5: D121Y: variant of human CD117 with substitution D121Y (protein)
chain: B3 chain with T96Y
binding to Refmab #1 compared to wild type (antibody Refmab #1 [1]): particular strong decrease in binding

B7: S123E: variant of human CD117 with substitution S123E (protein)
chain: B3 chain with T96D, S98E
binding to Refmab #1 compared to wild type (antibody Refmab #1 [1]): particular strong decrease in binding
binding of Refmab #1 at 2000 nM variant (antibody Refmab #1 [2]): do not show any binding

B9: D121R: variant of human CD117 with substitution D121R (protein)
chain: B3 chain with T96R
binding to Refmab #1 compared to wild type (antibody Refmab #1 [1]): strong decrease in binding

B11: K193G (receptor)
extracellular domains 1, 2 and 3: QPSVSPGEPSPPSIHPGKSDLIVRVGDEIRLLCTDPGFVKWTFEILDETNENKQNEWITEKAEATNTGKYTCTNKHGLSNSIYVFVRDPAKLFLVDRSLYGKEDNDTLVRCPLTDPEVTNYSLKGCQGKPLPKDLRFIPDPKAGIMIKSVKRAYHRLCLHCSVDQEGGSVLSEKFILKVRPAFKAVPVVSVSKASYLLREGEEFTVTCTIKDVSSSVYSTWKRENSQTKLQEKYNSWHHGDFNYERQATLTISSARVNDSGVFMCYANNTFGSANVTTTLEVVD
notes: not in the list MOLECULES; also called human CD117 D1-2-3 variant K193G
binding result (Biotinylated Avitag-hSCF): binds

B12: R122S (receptor)
extracellular domains 1, 2 and 3: B11 extracellular domains 1, 2 and 3 with R97S, G168K
notes: not in the list MOLECULES; also called human CD117 D1-2-3 variant R122S
binding to Refmab #1 compared to wild type (antibody Refmab #1 [1]): particular strong decrease in binding
binding result (Biotinylated Avitag-hSCF): binds

B13: R122E (receptor)
extracellular domains 1, 2 and 3: B11 extracellular domains 1, 2 and 3 with R97E, G168K
notes: not in the list MOLECULES; also called human CD117 D1-2-3 variant R122E
binding to Refmab #1 compared to wild type (antibody Refmab #1 [1]): particular strong decrease in binding
binding result (Biotinylated Avitag-hSCF): binds

B14: D121V (receptor)
extracellular domains 1, 2 and 3: B11 extracellular domains 1, 2 and 3 with D96V, G168K
notes: not in the list MOLECULES; also called human CD117 D1-2-3 variant D121V
binding result (Biotinylated Avitag-hSCF): binds

B15: D121S (receptor)
extracellular domains 1, 2 and 3: B11 extracellular domains 1, 2 and 3 with D96S, G168K
notes: not in the list MOLECULES; also called human CD117 D1-2-3 variant D121S
binding result (Biotinylated Avitag-hSCF): binds

B16: E73G (receptor)
extracellular domains 1, 2 and 3: B11 extracellular domains 1, 2 and 3 with E48G, G168K
notes: not in the list MOLECULES; also called human CD117 D1-2-3 variant E73G
binding result (Biotinylated Avitag-hSCF): binds

B20: V120I (receptor)
extracellular domains 1, 2 and 3: B11 extracellular domains 1, 2 and 3 with V95I, G168K
notes: not in the list MOLECULES; also called human CD117 D1-2-3 variant V120I
binding result (Biotinylated Avitag-hSCF): binds

B21: K193M (receptor)
extracellular domains 1, 2 and 3: B11 extracellular domains 1, 2 and 3 with G168M
notes: not in the list MOLECULES; also called human CD117 D1-2-3 variant K193M
binding result (Biotinylated Avitag-hSCF): binds

B22: R122L (receptor)
extracellular domains 1, 2 and 3: B11 extracellular domains 1, 2 and 3 with R97L, G168K
notes: not in the list MOLECULES; also called human CD117 D1-2-3 variant R122L
binding result (Biotinylated Avitag-hSCF): binds

More lines, main results first:

binding to Refmab #1 compared to wild type (antibody Refmab #1 [1]): particular strong decrease in binding
Kd (antibody Refmab #1 [2]): 1500 nM
change of KD compared to wild type CD117 (antibody Refmab #1 [2]): around 1,500 fold
Molecule: S123F: variant of human CD117 with substitution S123F
EC50 Average (TF-1 cells; average of two experiments): 3.82 ± 0.19 ng/mL
EC50 Experiment #1 (TF-1 cells; [3]): 4.01 ng/mL
EC50 Experiment #2 (TF-1 cells; [3]): 3.63 ng/mL

binding to Refmab #1 compared to wild type (antibody Refmab #1 [1]): particular strong decrease in binding
B1: S123P: variant of human CD117 with substitution S123P (protein)
chain: B3 chain with T96D, S98P

binding to Refmab #1 compared to wild type (antibody Refmab #1 [1]): strong decrease in binding
B2: S123Q: variant of human CD117 with substitution S123Q (protein)
chain: B3 chain with T96D, S98Q

binding to Refmab #1 compared to wild type (antibody Refmab #1 [1]): particular strong decrease in binding
binding of Refmab #1 at 2000 nM variant (antibody Refmab #1 [2]): No binding
B4: D121H: variant of human CD117 with substitution D121H (protein)
chain: B3 chain with T96H

binding to Refmab #1 compared to wild type (antibody Refmab #1 [1]): particular strong decrease in binding
Kd (antibody Refmab #1 [2]): 958 nM
change of KD compared to wild type CD117 (antibody Refmab #1 [2]): around 1000 fold
B6: E73R: variant of human CD117 with substitution E73R (protein)
chain: B3 chain with E48R, T96D

binding to Refmab #1 compared to wild type (antibody Refmab #1 [1]): strong decrease in binding
B8: S123M: variant of human CD117 with substitution S123M (protein)
chain: B3 chain with T96D, S98M

Kd (antibody Refmab #1 [2]): 485 nM
change of KD compared to wild type CD117 (antibody Refmab #1 [2]): around 500 fold
B10: E73L: variant of human CD117 with substitution E73L (protein)
chain: B3 chain with E48L, T96D

binding result (Biotinylated Avitag-hSCF): binds
B17: K193E (receptor)
extracellular domains 1, 2 and 3: B11 extracellular domains 1, 2 and 3 with G168E
notes: not in the list MOLECULES; also called human CD117 D1-2-3 variant K193E

binding result (Biotinylated Avitag-hSCF): binds
B18: K193T (receptor)
extracellular domains 1, 2 and 3: B11 extracellular domains 1, 2 and 3 with G168T
notes: not in the list MOLECULES; also called human CD117 D1-2-3 variant K193T

binding result (Biotinylated Avitag-hSCF): binds
B19: K193D (receptor)
extracellular domains 1, 2 and 3: B11 extracellular domains 1, 2 and 3 with G168D
notes: not in the list MOLECULES; also called human CD117 D1-2-3 variant K193D
